Assay results: PMC9482650, “Quantitative fragmentomics allow affinity mapping of interactomes” (Nature Communications, 2022)

Legend:
Experiment in all cases: holdup assay
Set-up in all cases: key: below the threshold = too weak to quantify, mostly under pKd 3.1 to 4
Details in all cases: plain residues with an end cap or a label only (N-terminal biotin on a linker: ado-ado)
MAGI2_6, Q86UL8 = biological target: MAGI2_6, Q86UL8
LNX1_1, Q8TBB1 = biological target: LNX1_1, Q8TBB1
DLG3_3, Q92796 = biological target: T1, DLG3_3, Q92796
T1 sequence (Q92796 374-475, limits assumed, looked up): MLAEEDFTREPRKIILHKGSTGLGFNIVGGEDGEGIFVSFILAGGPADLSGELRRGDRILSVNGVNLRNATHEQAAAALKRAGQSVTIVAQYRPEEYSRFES

MPP2, Q14168 = biological target: T2, MPP2, Q14168
T2 sequence (Q14168 180-250, limits assumed, looked up): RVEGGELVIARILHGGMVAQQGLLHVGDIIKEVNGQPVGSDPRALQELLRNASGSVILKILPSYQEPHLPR

ARHGEF12, Q9NZN5-2 = biological target: ARHGEF12, Q9NZN5-2
PARD3B_1, Q8TEW8 = biological target: T3, PARD3B_1, Q8TEW8
T3 sequence (Q8TEW8 196-299, limits assumed, looked up): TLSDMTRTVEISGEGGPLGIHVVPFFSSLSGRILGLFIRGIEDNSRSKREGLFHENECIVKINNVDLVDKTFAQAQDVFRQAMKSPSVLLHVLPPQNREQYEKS

LNX2_2, Q8N448 = biological target: T4, LNX2_2, Q8N448
T4 sequence (Q8N448 334-432, limits assumed, looked up): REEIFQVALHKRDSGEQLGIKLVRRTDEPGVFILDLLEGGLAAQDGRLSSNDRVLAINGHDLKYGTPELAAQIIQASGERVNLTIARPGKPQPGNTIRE

SIPA1L2, Q9P2F8 = biological target: T5, SIPA1L2, Q9P2F8
T5 sequence (Q9P2F8 945-1036, limits assumed, looked up): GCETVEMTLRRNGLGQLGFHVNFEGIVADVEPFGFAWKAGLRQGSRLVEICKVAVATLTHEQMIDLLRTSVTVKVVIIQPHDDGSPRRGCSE

NHERF4_2, Q86UT5 = biological target: NHERF4_2, Q86UT5
GRID2IP_2, A4D2P6 = biological target: GRID2IP_2, A4D2P6
MAGI1_1, Q96QZ7 = biological target: MAGI1_1, Q96QZ7
NHERF4_1, Q86UT5-2 = biological target: NHERF4_1, Q86UT5-2
Inadl_9, Q8NI35 = biological target: Inadl_9, Q8NI35
PTPN13_1, Q12923 = biological target: T6, PTPN13_1, Q12923
T6 sequence (Q12923 1088-1188, limits assumed, looked up): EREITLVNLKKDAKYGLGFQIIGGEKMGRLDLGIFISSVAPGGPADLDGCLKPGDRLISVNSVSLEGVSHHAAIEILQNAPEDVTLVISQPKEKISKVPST

GRASP, Q7Z6J2 = biological target: GRASP, Q7Z6J2
IL16_1, Q14005 = biological target: IL16_1, Q14005
FRMPD4, Q14CM0 = biological target: FRMPD4, Q14CM0
GRIP1_4, Q9Y3R0 = biological target: T7, GRIP1_4, Q9Y3R0
T7 sequence (Q9Y3R0 467-571, limits assumed, looked up): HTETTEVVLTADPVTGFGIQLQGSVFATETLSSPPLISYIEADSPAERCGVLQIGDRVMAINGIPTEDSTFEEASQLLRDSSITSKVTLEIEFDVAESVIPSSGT

SHANK1, Q9Y566 = biological target: T8, SHANK1, Q9Y566
T8 sequence (Q9Y566 658-767, limits assumed, looked up): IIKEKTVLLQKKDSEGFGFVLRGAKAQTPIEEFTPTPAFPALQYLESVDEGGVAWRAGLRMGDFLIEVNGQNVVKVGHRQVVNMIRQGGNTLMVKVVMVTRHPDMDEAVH

SCRIB_3, Q14160 = biological target: SCRIB_3, Q14160
CASK, O14936 = biological target: CASK, O14936
SNTG2, Q9NY99 = biological target: T9, SNTG2, Q9NY99
T9 sequence (Q9NY99 68-166, limits assumed, looked up): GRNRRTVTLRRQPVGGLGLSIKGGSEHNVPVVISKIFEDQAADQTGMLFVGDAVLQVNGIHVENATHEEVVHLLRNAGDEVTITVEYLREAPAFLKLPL

LDB3, O75112 = biological target: LDB3, O75112
PDZD7_3, Q9H5P4 = biological target: T10, PDZD7_3, Q9H5P4
T10 sequence (Q9H5P4 857-944, limits assumed, looked up): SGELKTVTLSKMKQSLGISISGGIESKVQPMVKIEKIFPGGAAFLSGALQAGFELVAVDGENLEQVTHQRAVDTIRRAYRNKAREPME

DFNB31_1, Q9P202 = biological target: T11, DFNB31_1, Q9P202
T11 sequence (Q9P202 135-233, limits assumed, looked up): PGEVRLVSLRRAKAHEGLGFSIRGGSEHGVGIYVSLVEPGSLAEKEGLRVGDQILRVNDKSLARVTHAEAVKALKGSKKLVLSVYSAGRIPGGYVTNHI

NHERF2_2, Q15599 = biological target: NHERF2_2, Q15599
Chain of NHERF2_2, Q15599 (Q15599 142-238): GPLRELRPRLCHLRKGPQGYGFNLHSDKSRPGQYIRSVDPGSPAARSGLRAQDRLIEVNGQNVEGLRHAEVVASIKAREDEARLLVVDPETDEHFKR

Chain of MAGI2_6, Q86UL8 (Q86UL8 1141-1229): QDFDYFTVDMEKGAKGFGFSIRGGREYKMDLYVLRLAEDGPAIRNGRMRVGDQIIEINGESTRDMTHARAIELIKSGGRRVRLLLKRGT
Chain of GRASP, Q7Z6J2 (Q7Z6J2 96-193): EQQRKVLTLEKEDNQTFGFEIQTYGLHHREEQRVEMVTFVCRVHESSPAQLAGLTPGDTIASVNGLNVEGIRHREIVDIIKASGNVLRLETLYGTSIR
Chain of IL16_1, Q14005 (Q14005 210-306): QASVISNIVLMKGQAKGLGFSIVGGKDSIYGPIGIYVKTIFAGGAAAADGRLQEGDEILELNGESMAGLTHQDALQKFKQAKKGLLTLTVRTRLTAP
Chain of LDB3, O75112 (O75112 1-94): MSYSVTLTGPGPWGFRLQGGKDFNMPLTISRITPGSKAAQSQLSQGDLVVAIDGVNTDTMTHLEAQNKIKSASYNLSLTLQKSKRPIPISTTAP
Chain of ARHGEF12, Q9NZN5-2 (Q9NZN5 other isoform, or with tags, fused parts or gaps): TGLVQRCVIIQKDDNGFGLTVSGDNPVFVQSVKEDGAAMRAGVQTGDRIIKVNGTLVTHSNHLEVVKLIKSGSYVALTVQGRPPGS
Chain of GRID2IP_2, A4D2P6 (A4D2P6 272-370): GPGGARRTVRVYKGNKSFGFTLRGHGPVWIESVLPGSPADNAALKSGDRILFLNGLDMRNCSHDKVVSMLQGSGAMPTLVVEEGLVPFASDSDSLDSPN
Chain of Inadl_9, Q8NI35 (Q8NI35 1530-1615): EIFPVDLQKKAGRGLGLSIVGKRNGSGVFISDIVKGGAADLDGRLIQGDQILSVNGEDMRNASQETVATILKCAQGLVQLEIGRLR
Chain of MAGI1_1, Q96QZ7 (Q96QZ7 1-106): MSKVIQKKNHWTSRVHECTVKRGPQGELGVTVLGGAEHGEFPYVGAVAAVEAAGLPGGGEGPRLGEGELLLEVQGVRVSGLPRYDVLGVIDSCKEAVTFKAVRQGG
Chain of CASK, O14936 (O14936 487-570): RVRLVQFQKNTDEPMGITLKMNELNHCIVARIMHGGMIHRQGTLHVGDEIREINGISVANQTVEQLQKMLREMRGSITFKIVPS
Chain of NHERF4_2, Q86UT5 (Q86UT5 220-308): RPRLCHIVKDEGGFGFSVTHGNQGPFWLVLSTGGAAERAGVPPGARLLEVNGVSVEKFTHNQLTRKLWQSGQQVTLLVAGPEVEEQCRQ
Chain of NHERF4_1, Q86UT5-2 (Q86UT5 other isoform, or with tags, fused parts or gaps): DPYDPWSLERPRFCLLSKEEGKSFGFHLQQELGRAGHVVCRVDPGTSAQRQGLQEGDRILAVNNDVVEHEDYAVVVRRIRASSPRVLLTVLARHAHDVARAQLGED
Chain of LNX1_1, Q8TBB1 (Q8TBB1 261-371): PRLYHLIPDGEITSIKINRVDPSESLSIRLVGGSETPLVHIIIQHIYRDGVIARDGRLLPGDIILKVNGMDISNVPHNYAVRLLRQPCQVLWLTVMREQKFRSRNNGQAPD
Chain of FRMPD4, Q14CM0 (Q14CM0 67-160): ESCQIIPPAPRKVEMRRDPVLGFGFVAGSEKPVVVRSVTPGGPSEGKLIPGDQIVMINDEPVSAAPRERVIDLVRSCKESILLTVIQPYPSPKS
Chain of SCRIB_3, Q14160 (Q14160 999-1103): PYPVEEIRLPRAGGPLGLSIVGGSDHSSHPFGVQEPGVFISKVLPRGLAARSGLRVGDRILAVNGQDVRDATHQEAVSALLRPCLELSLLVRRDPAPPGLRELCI

For VNKSKLLTDV [KCNA1, Q09470], the pKd (MAGI2_6, Q86UL8) was 3.88, the pKd (LNX1_1, Q8TBB1) was “below the threshold” and the pKd (DLG3_3, Q92796) was “below the threshold”. For the same binder, the pKd (MPP2, Q14168) was “below the threshold”, the pKd (ARHGEF12, Q9NZN5-2) was 4.56 and the pKd (PARD3B_1, Q8TEW8) was “below the threshold”. For the same binder, the pKd (LNX2_2, Q8N448) was “below the threshold”, the pKd (SIPA1L2, Q9P2F8) was “below the threshold” and the pKd (NHERF4_2, Q86UT5) was “below the threshold”. The pKd (GRID2IP_2, A4D2P6) was 3.71, the pKd (MAGI1_1, Q96QZ7) was “below the threshold” and the pKd (NHERF4_1, Q86UT5-2) was “below the threshold”. For the same binder, the pKd (Inadl_9, Q8NI35) was “below the threshold”, the pKd (PTPN13_1, Q12923) was “below the threshold” and the pKd (GRASP, Q7Z6J2) was “below the threshold”. For the same binder, the pKd (IL16_1, Q14005) was “below the threshold”, the pKd (FRMPD4, Q14CM0) was “below the threshold” and the pKd (GRIP1_4, Q9Y3R0) was “below the threshold”. For the same binder, the pKd (SHANK1, Q9Y566) was “below the threshold”, the pKd (SCRIB_3, Q14160) was 3.55 and the pKd (CASK, O14936) was “below the threshold”. For the same binder, the pKd (SNTG2, Q9NY99) was “below the threshold”, the pKd (LDB3, O75112) was “below the threshold” and the pKd (PDZD7_3, Q9H5P4) was 4.36. The pKd (DFNB31_1, Q9P202) was “below the threshold” and the pKd (NHERF2_2, Q15599) was “below the threshold”.

With VDSTVKVWTC [TRAF7, Q6Q0C0] the pKd (MAGI2_6, Q86UL8) was “below the threshold”, the pKd (LNX1_1, Q8TBB1) was “below the threshold” and the pKd (DLG3_3, Q92796) was “below the threshold”. The pKd (MPP2, Q14168) was “below the threshold”, the pKd (ARHGEF12, Q9NZN5-2) was 3.5 and the pKd (PARD3B_1, Q8TEW8) was 4.42. The pKd (LNX2_2, Q8N448) was 5.42, the pKd (SIPA1L2, Q9P2F8) was “below the threshold” and the pKd (NHERF4_2, Q86UT5) was “below the threshold”. The pKd (GRID2IP_2, A4D2P6) was “below the threshold”, the pKd (MAGI1_1, Q96QZ7) was 3.62 and the pKd (NHERF4_1, Q86UT5-2) was 3.67. For the same binder, the pKd (Inadl_9, Q8NI35) was 3.68, the pKd (PTPN13_1, Q12923) was “below the threshold” and the pKd (GRASP, Q7Z6J2) was 3.85. The pKd (IL16_1, Q14005) was “below the threshold”, the pKd (FRMPD4, Q14CM0) was 4.02 and the pKd (GRIP1_4, Q9Y3R0) was “below the threshold”. The pKd (SHANK1, Q9Y566) was “below the threshold”, the pKd (SCRIB_3, Q14160) was “below the threshold” and the pKd (CASK, O14936) was 3.75. For the same binder, the pKd (SNTG2, Q9NY99) was 3.49, the pKd (LDB3, O75112) was “below the threshold” and the pKd (PDZD7_3, Q9H5P4) was “below the threshold”. For the same binder, the pKd (DFNB31_1, Q9P202) was 3.58 and the pKd (NHERF2_2, Q15599) was “below the threshold”.

LSEFKAMDSI [CTNNA1, P35221] was tested, and the pKd (MAGI2_6, Q86UL8) was “below the threshold”, the pKd (LNX1_1, Q8TBB1) was “below the threshold” and the pKd (DLG3_3, Q92796) was “below the threshold”. For the same binder, the pKd (MPP2, Q14168) was “below the threshold”, the pKd (ARHGEF12, Q9NZN5-2) was “below the threshold” and the pKd (PARD3B_1, Q8TEW8) was “below the threshold”. For the same binder, the pKd (LNX2_2, Q8N448) was “below the threshold”, the pKd (SIPA1L2, Q9P2F8) was “below the threshold” and the pKd (NHERF4_2, Q86UT5) was “below the threshold”. For the same binder, the pKd (GRID2IP_2, A4D2P6) was “below the threshold”, the pKd (MAGI1_1, Q96QZ7) was “below the threshold” and the pKd (NHERF4_1, Q86UT5-2) was “below the threshold”. For the same binder, the pKd (Inadl_9, Q8NI35) was “below the threshold”, the pKd (PTPN13_1, Q12923) was “below the threshold” and the pKd (GRASP, Q7Z6J2) was “below the threshold”. The pKd (IL16_1, Q14005) was “below the threshold”, the pKd (FRMPD4, Q14CM0) was “below the threshold” and the pKd (GRIP1_4, Q9Y3R0) was “below the threshold”. The pKd (SHANK1, Q9Y566) was “below the threshold”, the pKd (SCRIB_3, Q14160) was “below the threshold” and the pKd (CASK, O14936) was “below the threshold”. For the same binder, the pKd (SNTG2, Q9NY99) was “below the threshold”, the pKd (LDB3, O75112) was “below the threshold” and the pKd (PDZD7_3, Q9H5P4) was “below the threshold”. The pKd (DFNB31_1, Q9P202) was “below the threshold” and the pKd (NHERF2_2, Q15599) was “below the threshold”.

For TPPAAKKSRI [BAZ1A, Q9NRL2], the pKd (MAGI2_6, Q86UL8) was “below the threshold”, the pKd (LNX1_1, Q8TBB1) was “below the threshold” and the pKd (DLG3_3, Q92796) was “below the threshold”. The pKd (MPP2, Q14168) was “below the threshold”, the pKd (ARHGEF12, Q9NZN5-2) was 3.66 and the pKd (PARD3B_1, Q8TEW8) was “below the threshold”. The pKd (LNX2_2, Q8N448) was “below the threshold”, the pKd (SIPA1L2, Q9P2F8) was “below the threshold” and the pKd (NHERF4_2, Q86UT5) was “below the threshold”. The pKd (GRID2IP_2, A4D2P6) was 4.42, the pKd (MAGI1_1, Q96QZ7) was “below the threshold” and the pKd (NHERF4_1, Q86UT5-2) was “below the threshold”. The pKd (Inadl_9, Q8NI35) was “below the threshold”, the pKd (PTPN13_1, Q12923) was “below the threshold” and the pKd (GRASP, Q7Z6J2) was “below the threshold”. For the same binder, the pKd (IL16_1, Q14005) was “below the threshold”, the pKd (FRMPD4, Q14CM0) was “below the threshold” and the pKd (GRIP1_4, Q9Y3R0) was “below the threshold”. For the same binder, the pKd (SHANK1, Q9Y566) was 3.53, the pKd (SCRIB_3, Q14160) was “below the threshold” and the pKd (CASK, O14936) was “below the threshold”. The pKd (SNTG2, Q9NY99) was “below the threshold”, the pKd (LDB3, O75112) was “below the threshold” and the pKd (PDZD7_3, Q9H5P4) was 4.52. For the same binder, the pKd (DFNB31_1, Q9P202) was 3.68 and the pKd (NHERF2_2, Q15599) was 3.58.
